Assay results published in publication PMC4240654 (2014).

Biological target: Factor IXa (Homo sapiens, UniProt P00740)
Assay: FXa generation assay

Sequence of Factor IXa (P00740 47-191): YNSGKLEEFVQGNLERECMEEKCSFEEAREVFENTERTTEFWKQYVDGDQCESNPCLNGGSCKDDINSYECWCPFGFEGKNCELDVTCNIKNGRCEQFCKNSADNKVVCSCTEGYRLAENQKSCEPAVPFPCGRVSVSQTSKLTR

Binder	Kd
BDD rFVIIIa (ReFacto) (protein, B-domain deleted, thrombin-activated) chain 1: ATRRYYLGAVELSWDYMQSDLGELPVDARFPPRVPKSFPFNTSVVYKKTLFVEFTDHLFNIAKPRPPWMGLLGPTIQAEVYDTVVITLKNMASHPVSLHAVGVSYWKASEGAEYDDQTSQREKEDDKVFPGGSHTYVWQVLKENGPMASDPLCLTYSYLSHVDLVKDLNSGLIGALLVCREGSLAKEKTQTLHKFILLFAVFDEGKSWHSETKNSLMQDRDAASARAWPKMHTVNGYVNRSLPGLIGCHRKSVYWHVIGMGTTPEVHSIFLEGHTFLVRNHRQASLEISPITFLTAQTLLMDLGQFLLFCHISSHQHDGMEAYVKVDSCPEEPQLRMKNNEEAEDYDDDLTDSEMDVVRFDDDNSPSFIQIRSVAKKHPKTWVHYIAAEEEDWDYAPLVLAPDDRSYKSQYLNNGPQRIGRKYKKVRFMAYTDETFKTREAIQHESGILGPLLYGEVGDTLLIIFKNQASRPYNIYPHGITDVRPLYSRRLPKGVKHLKDFPILPGEIFKYKWTVTVEDGPTKSDPRCLTRYYSSFVNMERDLASGLIGPLLICYKESVDQRGNQIMSDKRNVILFSVFDENRSWYLTENIQRFLPNPAGVQLEDPEFQASNIMHSINGYVFDSLQLSVCLHEVAYWYILSIGAQTDFLSVFFSGYTFKHKMVYEDTLTLFPFSGETVFMSMENPGLWILGCHNSDFRNRGMTALLKVSSCDKNTGDYYEDSYEDISAYLLSKNNAIEPR chain 2: SFQKKTRHYFIAAVERLWDYGMSSSPHVLRNRAQSGSVPQFKKVVFQEFTDGSFTQPLYRGELNEHLGLLGPYIRAEVEDNIMVTFRNQASRPYSFYSSLISYEEDQRQGAEPRKNFVKPNETKTYFWKVQHHMAPTKDEFDCKAWAYFSDVDLEKDVHSGLIGPLLVCHTNTLNPAHGRQVTVQEFALFFTIFDETKSWYFTENMERNCRAPCNIQMEDPTFKENYRFHAINGYIMDTLPGLVMAQDQRIRWYLLSMGSNENIHSIHFSGHVFTVRKKEEYKMALYNLYPGVFETVEMLPSKAGIWRVECLIGEHLHAGMSTLFLVYSNKCQTPLGMASGHIRDFQITASGQYGQWAPKLARLHYSGSINAWSTKEPFSWIKVDLLAPMIIHGIKTQGARQKFSSLYISQFIIMYSLDGKKWQTYRGNSTGTLMVFFGNVDSSGIKHNIFNPPIIARYIRLHPTHYSIRSTLRMELMGCDLNSCSMPLGMESKAISDAQITASSYFTNMFATWSPSKARLHLQGRSNAWRPQVNNPKEWLQVDFQKTMKVTGVTTQGVKSLLTSMYVKEFLISSSQDGHQWTLFFQNGKVKVFQGNQDSFTPVVNSLDPPLLTRYLRIHPQSWVHQIALRMEVLGCEAQDLY	4.5 nM
rFVIIIFc (thrombin-activated) (protein, Fc fusion, thrombin-activated) chain 1: ATRRYYLGAVELSWDYMQSDLGELPVDARFPPRVPKSFPFNTSVVYKKTLFVEFTDHLFNIAKPRPPWMGLLGPTIQAEVYDTVVITLKNMASHPVSLHAVGVSYWKASEGAEYDDQTSQREKEDDKVFPGGSHTYVWQVLKENGPMASDPLCLTYSYLSHVDLVKDLNSGLIGALLVCREGSLAKEKTQTLHKFILLFAVFDEGKSWHSETKNSLMQDRDAASARAWPKMHTVNGYVNRSLPGLIGCHRKSVYWHVIGMGTTPEVHSIFLEGHTFLVRNHRQASLEISPITFLTAQTLLMDLGQFLLFCHISSHQHDGMEAYVKVDSCPEEPQLRMKNNEEAEDYDDDLTDSEMDVVRFDDDNSPSFIQIRSVAKKHPKTWVHYIAAEEEDWDYAPLVLAPDDRSYKSQYLNNGPQRIGRKYKKVRFMAYTDETFKTREAIQHESGILGPLLYGEVGDTLLIIFKNQASRPYNIYPHGITDVRPLYSRRLPKGVKHLKDFPILPGEIFKYKWTVTVEDGPTKSDPRCLTRYYSSFVNMERDLASGLIGPLLICYKESVDQRGNQIMSDKRNVILFSVFDENRSWYLTENIQRFLPNPAGVQLEDPEFQASNIMHSINGYVFDSLQLSVCLHEVAYWYILSIGAQTDFLSVFFSGYTFKHKMVYEDTLTLFPFSGETVFMSMENPGLWILGCHNSDFRNRGMTALLKVSSCDKNTGDYYEDSYEDISAYLLSKNNAIEPR chain 2: SFQKKTRHYFIAAVERLWDYGMSSSPHVLRNRAQSGSVPQFKKVVFQEFTDGSFTQPLYRGELNEHLGLLGPYIRAEVEDNIMVTFRNQASRPYSFYSSLISYEEDQRQGAEPRKNFVKPNETKTYFWKVQHHMAPTKDEFDCKAWAYFSDVDLEKDVHSGLIGPLLVCHTNTLNPAHGRQVTVQEFALFFTIFDETKSWYFTENMERNCRAPCNIQMEDPTFKENYRFHAINGYIMDTLPGLVMAQDQRIRWYLLSMGSNENIHSIHFSGHVFTVRKKEEYKMALYNLYPGVFETVEMLPSKAGIWRVECLIGEHLHAGMSTLFLVYSNKCQTPLGMASGHIRDFQITASGQYGQWAPKLARLHYSGSINAWSTKEPFSWIKVDLLAPMIIHGIKTQGARQKFSSLYISQFIIMYSLDGKKWQTYRGNSTGTLMVFFGNVDSSGIKHNIFNPPIIARYIRLHPTHYSIRSTLRMELMGCDLNSCSMPLGMESKAISDAQITASSYFTNMFATWSPSKARLHLQGRSNAWRPQVNNPKEWLQVDFQKTMKVTGVTTQGVKSLLTSMYVKEFLISSSQDGHQWTLFFQNGKVKVFQGNQDSFTPVVNSLDPPLLTRYLRIHPQSWVHQIALRMEVLGCEAQDLY	5.5 nM
SC rFVIIIFc (thrombin-activated) (protein, single-chain Fc fusion, thrombin-activated) chain 1: ATRRYYLGAVELSWDYMQSDLGELPVDARFPPRVPKSFPFNTSVVYKKTLFVEFTDHLFNIAKPRPPWMGLLGPTIQAEVYDTVVITLKNMASHPVSLHAVGVSYWKASEGAEYDDQTSQREKEDDKVFPGGSHTYVWQVLKENGPMASDPLCLTYSYLSHVDLVKDLNSGLIGALLVCREGSLAKEKTQTLHKFILLFAVFDEGKSWHSETKNSLMQDRDAASARAWPKMHTVNGYVNRSLPGLIGCHRKSVYWHVIGMGTTPEVHSIFLEGHTFLVRNHRQASLEISPITFLTAQTLLMDLGQFLLFCHISSHQHDGMEAYVKVDSCPEEPQLRMKNNEEAEDYDDDLTDSEMDVVRFDDDNSPSFIQIRSVAKKHPKTWVHYIAAEEEDWDYAPLVLAPDDRSYKSQYLNNGPQRIGRKYKKVRFMAYTDETFKTREAIQHESGILGPLLYGEVGDTLLIIFKNQASRPYNIYPHGITDVRPLYSRRLPKGVKHLKDFPILPGEIFKYKWTVTVEDGPTKSDPRCLTRYYSSFVNMERDLASGLIGPLLICYKESVDQRGNQIMSDKRNVILFSVFDENRSWYLTENIQRFLPNPAGVQLEDPEFQASNIMHSINGYVFDSLQLSVCLHEVAYWYILSIGAQTDFLSVFFSGYTFKHKMVYEDTLTLFPFSGETVFMSMENPGLWILGCHNSDFRNRGMTALLKVSSCDKNTGDYYEDSYEDISAYLLSKNNAIEPR chain 2: SFQKKTRHYFIAAVERLWDYGMSSSPHVLRNRAQSGSVPQFKKVVFQEFTDGSFTQPLYRGELNEHLGLLGPYIRAEVEDNIMVTFRNQASRPYSFYSSLISYEEDQRQGAEPRKNFVKPNETKTYFWKVQHHMAPTKDEFDCKAWAYFSDVDLEKDVHSGLIGPLLVCHTNTLNPAHGRQVTVQEFALFFTIFDETKSWYFTENMERNCRAPCNIQMEDPTFKENYRFHAINGYIMDTLPGLVMAQDQRIRWYLLSMGSNENIHSIHFSGHVFTVRKKEEYKMALYNLYPGVFETVEMLPSKAGIWRVECLIGEHLHAGMSTLFLVYSNKCQTPLGMASGHIRDFQITASGQYGQWAPKLARLHYSGSINAWSTKEPFSWIKVDLLAPMIIHGIKTQGARQKFSSLYISQFIIMYSLDGKKWQTYRGNSTGTLMVFFGNVDSSGIKHNIFNPPIIARYIRLHPTHYSIRSTLRMELMGCDLNSCSMPLGMESKAISDAQITASSYFTNMFATWSPSKARLHLQGRSNAWRPQVNNPKEWLQVDFQKTMKVTGVTTQGVKSLLTSMYVKEFLISSSQDGHQWTLFFQNGKVKVFQGNQDSFTPVVNSLDPPLLTRYLRIHPQSWVHQIALRMEVLGCEAQDLY	4.1 nM
